Reference: patent US20100291188A1, “Periostin Inhibitory Compositions for Myocardial Regeneration, Methods of Delivery, and Methods of Using Same” (MUSC FOUNDATION FOR RESEARCH DEVELOPMENT, priority 2008, published 2010)
Entries after “also recorded” stand apart in the source; their conditions may differ.

Legend:
[1] = test system: Mesenchyme from periostin null mice; assay: Hanging drop culture of periostin null mesenchyme with purified periostin protein, Western analysis for collagen I; format: cell-based, mouse; details: 7 days, purified periostin protein 10 µg/ml vs PBS
Method: FIG. C-4: Periostin regulates collagen I synthesis. Mesenchyme from periostin null mice were placed in hanging drop cultures and incubated with either purified periostin protein (10 µg/ml) or PBS. Mesenchyme from wild-type mice were used as control tissues. After 7 days, tissues were analyzed for periostin and collagen expression by Western analysis. […] Actin is used for protein normalization (B) Graphical representation of Western analyses presented in panel A obtained from densitometric analyses using NIH image software. Values obtained were compared against wild-type values (baseline) and represented as relative percent change. * denotes p<0.05
To further determine the potential for periostin to affect fibroblast differentiation, we compared mesenchymal cells isolated from periostin null and wild-type mice, in addition to performing “rescue” experiments. For this study, we isolated atrioventricular mesenchyme from E12.5 periostin null and wild-type mice and placed them in hanging drop cultures for 7 days. In addition, purified protein was added to a subset of the hanging drops to determine the ability to rescue any defects observed in marker expression. After 7 days, the hanging drops were collected, lysed and Western analyses were performed for the fibroblast markers collagen I[…]I, and I[…]2. […]

wild-type fibroblast = assay: Fibroblast migration on periostin and collagen coated dishes; format: cell-based; details: varying amounts of periostin and collagen coated on dishes
Method: FIG. D-2: Varying amounts of periostin and collagen coated dishes were assayed for their ability to promote wild-type fibroblast migration.
A final additional approach to be considered for this aim involves alternative migration assays. Scratch assays are a standard two-dimensional in vitro “wounding” assay whereby a small scratch is introduced into a confluent monolayer of cells and the time the cells take to invade and fill in the empty area provides a measure of migration^78. Thus, these assays will be employed to assess the 2-dimensional migratory capabilities of the “unidentified cells”. The time it takes for “unidentified” cells to fill the gap will be compared to that of wild-type cardiac fibroblasts. Preliminary data on fibroblasts has been previously performed and serves as a benchmark for comparison (FIG. D-2). This 2-D culture assay will serve as a nice complement to the 3-D migration and invasion assay proposed in Experiment 2.

B1: purified periostin protein: purified periostin protein, 90 kDa secreted matricellular protein; added to culture medium or coated on dishes (protein, UniProt Q15063 22-836, looked up)
Periostin: NNHYDKILAHSRIRGRDQGPNVCALQQILGTKKKYFSTCKNWYKKSICGQKTTVLYECCPGYMRMEGMKGCPAVLPIDHVYGTLGIVGATTTQRYSDASKLREEIEGKGSFTYFAPSNEAWDNLDSDIRRGLESNVNVELLNALHSHMINKRMLTKDLKNGMIIPSMYNNLGLFINHYPNGVVTVNCARIIHGNQIATNGVVHVIDRVLTQIGTSIQDFIEAEDDLSSFRAAAITSDILEALGRDGHFTLFAPTNEAFEKLPRGVLERIMGDKVASEALMKYHILNTLQCSESIMGGAVFETLEGNTIEIGCDGDSITVNGIKMVNKKDIVTNNGVIHLIDQVLIPDSAKQVIELAGKQQTTFTDLVAQLGLASALRPDGEYTLLAPVNNAFSDDTLSMDQRLLKLILQNHILKVKVGLNELYNGQILETIGGKQLRVFVYRTAVCIENSCMEKGSKQGRNGAIHIFREIIKPAEKSLHEKLKQDKRFSTFLSLLEAADLKELLTQPGDWTLFVPTNDAFKGMTSEEKEILIRDKNALQNIILYHLTPGVFIGKGFEPGVTNILKTTQGSKIFLKEVNDTLLVNELKSKESDIMTTNGVIHVVDKLLYPADTPVGNDQLLEILNKLIKYIQIKFVRGSTFKEIPVTVYTTKIITKVVEPKIKVIEGSLQPIIKTEGPTLTKVKIEGEPEFRLIKEGETITEVIHGEPIIKKYTKIIDGVPVEITEKETREERIITGPEIKYTRISTGGGETEETLKKLLQEEVTKVTKFIEGGDGHLFEDEEIKRLLQGDTPVRKLQANKKVQGSRRRLREGRSQ
collagen I expression (collagen Iα1 and Iα2, Western analysis) [1]: rescued; also recorded: induces expression of collagen I[…]1 and I[…]2
collagen I expression (collagen Iα1 and Iα2, Western analysis) ([1]; listed as purified protein): reactivation of collagen isoforms
fibroblast migration (wild-type fibroblast): titrating affect of periostin in combination with collagen to stimulate migration
